Experimental data as given in patent publication US20120207673A1.

Molecular target: protein A (UniProt P38507)
Assay: phage ELISA on coated protein A; heat/cool assay, % of untreated sample

Sequence of DP47 VH with CDR2 of HEL4 (VH): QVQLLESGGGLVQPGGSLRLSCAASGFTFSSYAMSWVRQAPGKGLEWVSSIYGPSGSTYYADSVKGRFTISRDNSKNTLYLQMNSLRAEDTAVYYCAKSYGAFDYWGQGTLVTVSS

| Substance | Retained binding to protein A [%] |
| --- | --- |
| DP47 VH SYA31-33DED | 67 |

Molecular target: protein A (UniProt P38507)
Assay: phage ELISA on coated protein A; signal after 80 C 10 min then 4 C 10 min as % of the untreated sample (heat/cool assay)

| Substance | Retained binding to protein A [%] |
| --- | --- |
| DP47 VH with CDR2 of HEL4 | 4 |
| DP47 VH with CDR3 of HEL4 | 3 |

Molecular target: protein A (UniProt P38507)
Assay: phage ELISA on coated protein A; heat/cool assay, % of untreated sample (n = 2)

| Substance | Retained binding to protein A (%) |
| --- | --- |
| DP47 VH SY_31/32_DE | 50 |
| DP47 VH YA_32/33_ED | 59 |
| DP47 VH SYA_31-33_DDD | 66 |
| DP47 VH SY_31/32_DD | 62 |
| DP47 VH SA_31/33_DD | 52 |
| DP47 VH YA_32/33_DD | 64 |
| DP47 VH SYA31-33DED | 69 |
